Measurements reported in the supplement of paper PMC10266784.

B1: library; numbered along this chain (parent)
chain: MAAAAAAAAEQQSSNGPVKKSMREKAVERRSVNKEHNSNFKAGYIPIDEDRLHKTGLRGRKGNLAICVIILLFILAVINLIITLVIWAVIRIGPNGCDSMEFHESGLLRFKQVSDMGVIHPLYKSTVGGRRNENLVITGNNQPIVFQQGTTKLSVENNKTSITSDIGMQFFDPRTQNILFSTDYETHEFHLPSGVKSLNVQKASTERITSNATSDLNIKVDGRAIVRGNEGVFIMGKTIEFHMGGNMELKAENSIILNGSVMVSTTRLPSSSSGDQLGSGDWVRYKLCMCADGTLFKVQVTSQNMGCQISDNPCGNTH

Variants of: B1
Assay: SGCB cell-surface expression functional score (HA stain, bin4 vs bin1, normalised to synonymous) (log10 ratio); higher = more cell-surface SGCB (functional)
Method in brief: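 The functional score is a log ratio of variant frequency in the highest versus the lowest intensity bin, expressed as a median over codons and duplicate transductions. Codon-saturation libraries of HA-tagged, YFP-fused human beta-sarcoglycan were transduced by lentivirus at MOI <0.1 into HEK293 cells stably expressing alpha-, gamma- and delta-sarcoglycan, and the cells were stained on ice with Alexa Fluor 647 anti-HA, fixed and sorted into four 5% intensity bins before amplicon sequencing. Synonymous variants were scaled to mean 0, SD 0.5 within each section.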

Variant	SGCB cell-surface expression functional score (log10)
MAAAAAAAAEQQSSNGPVKKSMREKAVERRSVNKEHNSNFKAGYIPIDEDRLHKTGLRGRKGNLAICVIILLFILAVINLIITLVIWAVIRIGPNGCDSMEFHESGLLRFKQVSDMGVIHPLYKSTVGGVRNENLVITGNNQPIVFQQGTTKLSVENNKTSITSDIGMQFFDPRTQNILFSTDYETHEFHLPSGVKSLNVQKASTERITSNATSDLNIKVDGRAIVRGNEGVFIMGKTIEFHMGGNMELKAENSIILNGSVMVSTTRLPSSSSGDQLGSGDWVRYKLCMCADGTLFKVQVTSQNMGCQISDNPCGNTH [R130V]	-0.41
MAAAAAAAAEQQSSNGPVKKSMREKAVERRSVNKEHNSNFKAGYIPIDEDRLHKTGLRGRKGNLAICVIILLFILAVINLIITLVIWAVIRIGPNGCDSMEFHESGLLRFKQVSDMGVIHPLYKSTVGGWRNENLVITGNNQPIVFQQGTTKLSVENNKTSITSDIGMQFFDPRTQNILFSTDYETHEFHLPSGVKSLNVQKASTERITSNATSDLNIKVDGRAIVRGNEGVFIMGKTIEFHMGGNMELKAENSIILNGSVMVSTTRLPSSSSGDQLGSGDWVRYKLCMCADGTLFKVQVTSQNMGCQISDNPCGNTH [R130W]	-0.57
MAAAAAAAAEQQSSNGPVKKSMREKAVERRSVNKEHNSNFKAGYIPIDEDRLHKTGLRGRKGNLAICVIILLFILAVINLIITLVIWAVIRIGPNGCDSMEFHESGLLRFKQVSDMGVIHPLYKSTVGGYRNENLVITGNNQPIVFQQGTTKLSVENNKTSITSDIGMQFFDPRTQNILFSTDYETHEFHLPSGVKSLNVQKASTERITSNATSDLNIKVDGRAIVRGNEGVFIMGKTIEFHMGGNMELKAENSIILNGSVMVSTTRLPSSSSGDQLGSGDWVRYKLCMCADGTLFKVQVTSQNMGCQISDNPCGNTH [R130Y]	0.43
MAAAAAAAAEQQSSNGPVKKSMREKAVERRSVNKEHNSNFKAGYIPIDEDRLHKTGLRGRKGNLAICVIILLFILAVINLIITLVIWAVIRIGPNGCDSMEFHESGLLRFKQVSDMGVIHPLYKSTVGGRCNENLVITGNNQPIVFQQGTTKLSVENNKTSITSDIGMQFFDPRTQNILFSTDYETHEFHLPSGVKSLNVQKASTERITSNATSDLNIKVDGRAIVRGNEGVFIMGKTIEFHMGGNMELKAENSIILNGSVMVSTTRLPSSSSGDQLGSGDWVRYKLCMCADGTLFKVQVTSQNMGCQISDNPCGNTH [R131C]	0.15
MAAAAAAAAEQQSSNGPVKKSMREKAVERRSVNKEHNSNFKAGYIPIDEDRLHKTGLRGRKGNLAICVIILLFILAVINLIITLVIWAVIRIGPNGCDSMEFHESGLLRFKQVSDMGVIHPLYKSTVGGRENENLVITGNNQPIVFQQGTTKLSVENNKTSITSDIGMQFFDPRTQNILFSTDYETHEFHLPSGVKSLNVQKASTERITSNATSDLNIKVDGRAIVRGNEGVFIMGKTIEFHMGGNMELKAENSIILNGSVMVSTTRLPSSSSGDQLGSGDWVRYKLCMCADGTLFKVQVTSQNMGCQISDNPCGNTH [R131E]	0.66
MAAAAAAAAEQQSSNGPVKKSMREKAVERRSVNKEHNSNFKAGYIPIDEDRLHKTGLRGRKGNLAICVIILLFILAVINLIITLVIWAVIRIGPNGCDSMEFHESGLLRFKQVSDMGVIHPLYKSTVGGRHNENLVITGNNQPIVFQQGTTKLSVENNKTSITSDIGMQFFDPRTQNILFSTDYETHEFHLPSGVKSLNVQKASTERITSNATSDLNIKVDGRAIVRGNEGVFIMGKTIEFHMGGNMELKAENSIILNGSVMVSTTRLPSSSSGDQLGSGDWVRYKLCMCADGTLFKVQVTSQNMGCQISDNPCGNTH [R131H]	-0.12
MAAAAAAAAEQQSSNGPVKKSMREKAVERRSVNKEHNSNFKAGYIPIDEDRLHKTGLRGRKGNLAICVIILLFILAVINLIITLVIWAVIRIGPNGCDSMEFHESGLLRFKQVSDMGVIHPLYKSTVGGRANENLVITGNNQPIVFQQGTTKLSVENNKTSITSDIGMQFFDPRTQNILFSTDYETHEFHLPSGVKSLNVQKASTERITSNATSDLNIKVDGRAIVRGNEGVFIMGKTIEFHMGGNMELKAENSIILNGSVMVSTTRLPSSSSGDQLGSGDWVRYKLCMCADGTLFKVQVTSQNMGCQISDNPCGNTH [R131A]	0.14
MAAAAAAAAEQQSSNGPVKKSMREKAVERRSVNKEHNSNFKAGYIPIDEDRLHKTGLRGRKGNLAICVIILLFILAVINLIITLVIWAVIRIGPNGCDSMEFHESGLLRFKQVSDMGVIHPLYKSTVGGRDNENLVITGNNQPIVFQQGTTKLSVENNKTSITSDIGMQFFDPRTQNILFSTDYETHEFHLPSGVKSLNVQKASTERITSNATSDLNIKVDGRAIVRGNEGVFIMGKTIEFHMGGNMELKAENSIILNGSVMVSTTRLPSSSSGDQLGSGDWVRYKLCMCADGTLFKVQVTSQNMGCQISDNPCGNTH [R131D]	0.14
MAAAAAAAAEQQSSNGPVKKSMREKAVERRSVNKEHNSNFKAGYIPIDEDRLHKTGLRGRKGNLAICVIILLFILAVINLIITLVIWAVIRIGPNGCDSMEFHESGLLRFKQVSDMGVIHPLYKSTVGGRGNENLVITGNNQPIVFQQGTTKLSVENNKTSITSDIGMQFFDPRTQNILFSTDYETHEFHLPSGVKSLNVQKASTERITSNATSDLNIKVDGRAIVRGNEGVFIMGKTIEFHMGGNMELKAENSIILNGSVMVSTTRLPSSSSGDQLGSGDWVRYKLCMCADGTLFKVQVTSQNMGCQISDNPCGNTH [R131G]	0.16
MAAAAAAAAEQQSSNGPVKKSMREKAVERRSVNKEHNSNFKAGYIPIDEDRLHKTGLRGRKGNLAICVIILLFILAVINLIITLVIWAVIRIGPNGCDSMEFHESGLLRFKQVSDMGVIHPLYKSTVGGRFNENLVITGNNQPIVFQQGTTKLSVENNKTSITSDIGMQFFDPRTQNILFSTDYETHEFHLPSGVKSLNVQKASTERITSNATSDLNIKVDGRAIVRGNEGVFIMGKTIEFHMGGNMELKAENSIILNGSVMVSTTRLPSSSSGDQLGSGDWVRYKLCMCADGTLFKVQVTSQNMGCQISDNPCGNTH [R131F]	-0.03
